Results reported in the DeepSol protein solubility set.

Test: soluble on expression in E. coli; label from the status in PepcDB or PDB records

Sequence | soluble on expression in E. coli
MGSDKIHHHHHHMKIGILTFHDAHNYGAMLQCYALQQFLFKKGYNVEVIDYRPAFYQKQYHRHSLCPWIGKNPVRTMKSIYYNYYLFNKRCAAFSDFHNRHLYMSIPATRTNIPQSYDAYIVGSDQIWNPQLTNGFHDVYFCDFCFPKGKSRFIAYAPSMEISRLSTQEAEYLTRVLNCFDALSVRESSLIPILQPLVSQPIQQVLDPTLLLDATAWNPLIGKCPKNRPYVVLYQVRENPAVRMKAFEIAQSIGGIVVELTARIDCHYSTKYQTASPADFVTYIRYATYVVTTSFHGTAFSLIFNRPFYTFSLGDNFDSRSASLLESVNLTERLVCPDEQFEISLIDFKQANKRLKHLRKQSCDFLRQSLHERQEQ | not soluble
MQTLKSDIRNRILSAAKEQFMQRGYLKTSMREIADAVDVGVGNLYNYFENKDELFCVILRPVSDALERMLQEHHGAKGADIMLICSEEYLKSAVDEYISLINKHGELMKILLFHSQGSSLETFREDYTNRSTEIVKTWFAEMKEKHPEINVVVSDFMIHLQAVWMFTLFEEMLKHAIDSKEMEYIVHEYILFEIQGWRALLRV | not soluble
MDIGDHGTHCAGIIAGFGPNVKIASLKHLSGNKFKDLDNWVSTMIKAINYADAMDIKIVNVSLGLHKSQIGDRPFDSQALNDAISNADLLFVTAAGNFNKNIDLPDDVIYPASCTAENIITVANTDKDDKLYESSNYGVISVDLAAPGTDIRSTIPTHLAGEGGPYDIKTGTSMSAPHVAGAAALLLSSNPSLTTQQLKDLILSSVDFLPDLQGKVATSGRLNVAKALRKIRTSVKIGDIDGNGEISSIDYAILKSHLINSNLTFKQLAAADVDGNGYVNSIDLAILQMYLLGKGGTSDIGKNRIYTYGDIDNNGIVDENDYILICNHINGTGQLSDASLFAADADGNNVIDQTDRILIEKYITGRITHLPVGNQ | not soluble
MSLNGIGSYEYCGRRISMQDSILVGNNFFGDASSLFGIFDGHGGDYGSCFISKEIQKSLEKLRGRALTKEVFENEIISAIQNINTLMEQNNMTDGATSVIVASTKTHYLIANIGDSRAIIIRRTETSPIPMKDIDDETQQTLRPKSPSKLVLPKKTLKGKLGWSGAGSSKTTNQIEVNFDYIGGGRIEVEALTHDHKPSYQEDRQRIRESGNYISDQEKVNGYISVTRAIGDVKCKAFVSCIPEFSEVARRSSDCFVICACDGVWDVFSNEEIGNLVMANEQMNCTELAKLIVDIAYCRLSSDNISCIVFNCQDSEGHHHHHH | soluble
MTLCAMYNISMAGSHPTTICVVMDRFLESFSELYDIIDENDTDVMMDFISRFARTDEIMPEDKTVGFVVVNADKKLMSVSFSDIDENMKKVIKATAEKFKNKGFKVETDM | soluble
MGSDKIHHHHHHMQINRLFEIIYILLENRTITAAELAERFEVSARTIYRDVEILAQGGMPIYMSKGKGGGISLLPDFILNKAVLTEEEKSEILSSLQAFNAVNLSKSETALSKLTSMLGAKNTDWIEVDFSSWGHFENDRAYFENIKTAIIEKKIITFMYASGKAEKLLREVLPLKLVFKGAAWYLYGYCTLRRDYRFFKLRRITELAVTDTGFEMKTPETIFAGQKLDTGTYLKAKLLISKTMAFRVYDEISSYEIDEKGDFVCRLYLPDIATLCTYAASFGEHCIILSPEQAVAEMKRRLQNSLKNYS | not soluble
PFKKRRTEDEIRKQCPWATLGRKGGRQPNIITSLELDSAVMEQNNLRFQKKYAEIEANEVRYEEYQTEDADYILVAFGSSARICNKTVQLARQQGIKAGILRPITLWPFPTKEIAKLADRAKGFLVAELNAGQMIEDVRLAVNGKVPVEHYGRMGGMLFSPDEILQALKEKVIK | not soluble
QLVIERVSLPNPGKEKMTQALLTYVRRQGLSSLNWTPAAESLLERIRCAVDWLPEQAWPMFDEASLLDSLDEWLEPYMTSVA | not soluble
MGSDKIHHHHHHMNVTLRQLQAFIAVAELGRFHLAADHLGLTQSAISILIKDLEVALKHRLFDRHTRMVSLTTAGAEFLPQARKIMSDLEIAVANVHELASLQRGRVTIAAAIVLAATLLPPVIARFVKRYPDISVQVRDMPEEEIRSALKRNEADLGIGTVSADDPEIQASVLMRDQLTLICRSDHRFAKARQVSWASLAGEGVIGLAKDNPLRGLVDRALIASGVEVKTRYEVRFSTTAISMVAEGLGIAILPENSRQLTTNVDVRIVELVDPVISRNISILQYRQPMLSPAAAKMKEFLMGASRKLS | not soluble
MELYELAQAAGGGIDPDVFKILVDLLKLNVAPLAVFQMLKSMCAGQRLASEPQDPAAVSLPTSSVPETRGRDKGSAALGGVLALAERSNHEGSSQRMPRQPSATRLPKGGGPGKSPTQGST | soluble
MSLSQASSTDTPFVIAGRTYGSRLLVGTGKYKDLDETRRAIEASGAEIVTVAVRRTNIGQNPDEPNLLDVIPPDRYTILPNTAGCYDAVEAVRTCRLARELLDGHNLVKLEVLADQKTLFPNVVETLKAAEQLVKDGFDVMVYTSDDPIIARQLAEIGCIAVMPLAGLIGSGLGICNPYNLRIILEEAKVPVLVDAGVGTASDAAIAMELGCEAVLMNTAIAHAKDPVMMAEAMKHAIVAGRLAYLAGRMPRKLYASASSPLDGLIDEGGSHHHHHH | soluble
MKKLLFFLFTLVVLASGCGKKNTFTLEGSIKGLPSDTILVFYQEPDYKLDTILLSKGKFTYTITPDTFTIFSLLLGEKQILPIYADKGESVTLNGMVGKIEVKGKGENAQLAKHIQYLSTLENNKAAVMTAVDSLIKTNPSSYSNIYLIDKYYVQDSLPDYNHIDQLIKGLSGIIKDTPYIIELQNKLSEKKELTEHRYVSNISCTDKKGKTVNWNSVKGKYVLLDFWASWNKESIATQDSLVSVQKALKKDKFVIISLSLDLDKKEWMEKIIQRDTTQWKQVCDFKGWNNSIVKQQGITRIPANILIGPDKRVITQDIRGKELIDKVRQLTEQDKEKEKAAKEAERARKRQNKK | not soluble
MGHHHHHHSHMKQTAESIRDRFMKLGIDVPVEDIESRLDELIKKFKVPSNEAQRSVTNYFLKKYSIPKNEFYVRQAEPQLTKIVDIVENGQWANLKAKVIQLWENTHESISQVGLLGDETGIIKFTIWKNAELPLLEQGESYLLRSVVVGEYNDRFQVQVNKNSSIEKLSEPIEVGGGDFTPAAREAELRNIADLTGNQWATVRGKVIQLWENSHESIEQAGLIGDETGVIKFTNWASSELPDMEEGRSYLLKNVVVNEWNGKAQVQLNRSSSIEELDEDIEVRTSMSSYFGAMVDIQTGSGLIKRCPECKRALVKGACAEHGKVKGEYDLRIKAVLDSGTSTQDALINRELTEELSGISLDSAIAMAADALDPGVVLDKLKHELVGRYYTITGHKLDRYILVESITPRTSLDRELLDQMLAEPIAQPEVE | soluble
MLTNCASKTLAAVRANIRAIATSSARASDNLFVHRDTPEDNPNIPFEFTAENKKRVEAILSIYPEGHKRGAMIPLLDLAQRQYGWLPISAMHKVAEILQLPNMRVYEVATFYTMFMRKPTGKYHIQVCTTTPCWLRGSDDILETCKKQLGIGVGDTTKDRKFTISEVECLGACVNAPMVAINDDYYEDLTSKDMQDILNDLKADKISPPGPRNGRFASEPKGEPTSLSEEPKGPGFGLQAGL | not soluble
MGSDKIHHHHHHANNFGITYSLPKTSLVVDAEVTKVTCKAGPYYQYAEKYLGVKDAVTEDKIYFDLGKISLINRGLPDADNTYIVEFKQGTVAPYAYLTEDGLLCSINAEYTPVESELDAAKKNKGSQQKVTDTSVFSEELLMAGSTAKQAEVAAKQIYRIRESRLNILTGEADNLPPDGEAMKLVIQQLEEQEKALTNLFTGILTKETEHYEVSIIPHDNLDKEVLFRFSKQLGIVDADDLGGTPVYMNLKATERAPILDAKEAEKKDKSLKGIVYNVPGKASIEILMNKKTLYKGEAQITQFGTREGLAPVMFEDKKAPVKVLFYPETGAIKQIIQ | not soluble
MINLSNLSAVATSVARAALGESNTSKINHAFDVASHIAGQTALRVGNSLLEQINRLNERQQQGLSEILKALRGEKPVDGVHTHSGGGLFKLARAAFDVVSVVWERDKLKPHVMSFLKALDSQGKTLFSLGKEMAKAFAESVQGPDKNNGKTESSPYASFASKVGMSKVVQRLFNELGRPGAERVRRPTSGPAPRPGGAEQQARPETPPRTRPQANGAPPPPPKAEPRPSSGRPGGAQQQARPETPPRSRPQTNSAPPPPRAEPRPASGRPGGAQQQARPETPPRSRPQTNSAPPPPKAEPRPSSGRPGGAQQQARPETPPRSRPQTNNAPPPRSNNTAGASASAKVGESGPAKPAVKPLYEWLGLSDMTASPAAVKKAYYNASMKHHPDKNPGDAGATARFQDISNAFSILSDPEKRKAYDSGRMNEKGQYV | not soluble
MSLVTNKLGRDIPQPYADQYGVFEGELANIKQYDESSRRIKPVKPGDSKLLGSVREAIEKTGLTDGMTISFHHHFREGDFIMNMVLEEIAKMGIKNLSIAPSSIANVHEPLIDHIKNGVVTNITSSGLRDKVGAAISEGLMENPVVIRSHGGRARAIASGDIHIDVAFLGAPSSDAYGNVNGTKGKATCGSLGYAMIDAKYADQVVILTDNLVPYPNTPISIPQTDVDYVVTVDAIGDPQGIAKGATRFTKNPKELLIAEYAAKVITNSPYFKEGFSFQTGTGGASLAVTRFMREAMIKENIKASFALGGITNAMVELLEEELVEKILDVQDFDHPSAVSLGKHAEHYEIDANMYASPLSKGAVINQLDTCILSALEVDTNFNVNVMTGSDGVIRGASGGHCDTAFAAKMSLVISPLIRGRIPTFVDEVNTVITPGTSVDVIVTEVGIAINPNRQDLVDHFKSLNVPQFSIEELKEKAYAIVGTPERIQYGDKVVALIEYRDGSLMDVVYNVEGHHHHHH | soluble
MAPTLAEAEKFLRNSKIDKIVLEKLAEILVTTMDDWNLIADQKVAESVWVVLTEAGRSGNLSENLGDGDVAKQLKSVFEKIRLRLQAQLGTIQWKNDELVDYDVTISKNNKSSLHADHTFQRVVLTLKVIPAGKMDVEALVVDFDEAQLNDFIWKLLEAKAMMDRIQKRVESR | not soluble
MFEITRPPGVRAHVGVIGGSGLYDPGIVENPVEVKVSTPYGNPSDFIVVGDVAGVKVAFLPRHGRGHRIPPHAINYRANIWALKALGVKWVISVSAVGSLREDYRPGDFVVPDQFIDMTKNRRHYTFYDGPVTVHVSMADPFCEDLRQRLIDSGRRLGYTVHERGTYVCIEGPRFSTRAESRVWKDVFKADIIGMTLVPEINLACEAQLCYATLAMVTDYDVWADRPVTAEEVERVMISNVERARRMLYDVIPKLAGEPELERCSCCRALDTAAI | soluble
MNSRGLILTLGVVIAVAFAQQDSEVEREMMKRKSAYMRFGRSDGGNPMEMEKRKSAYMRFGKRSSGGDEQELVGGDDIDMEKRKSAYMRFGKRSGPQEDDMPMEKRKSAYMRFGKRSSDMEVIGNEGVDGDAHDLFKRKSAYMRFGKRSMGEEEDHDMMKRKSAYMRFGR | not soluble
ERLFQVFISLGVGKSAIRQHLASLDPTNSRDIEALADELSGKRPLLYRGVAMLLAHHSFAKSLREDAAGMWLQEKRHQLHSGLR | not soluble
MILKPIGVVKSPFKTQNDAPRQGRFSDAVSEIAIFDEYADGLHKIENLRHIIVLYWMDKASRDKLRVVPPGETEERGVFTTRSPSRPNPIGLCVVEILEVERNRLKVRWLDALDGSPVIDIKKYSPEIDCVNQLEGQQP | not soluble
MKKEQISTQFYEVNPHTMIIFPKKSGSIVYSEIYEVDSHYTSKFTPFELIKTSCNFFGSSYDGGRRNGIPKIKTSSQKDVFILLLYRRNSISVTNY | not soluble
AHHHHHHASAKWVCKICGYIYDEDAGDPDNGISPGTKFEELPDDWVCPICGAPKSEFEKLEDGSGTREIIIDCYLHDMCEGLNIMTVRGSAYLLVGQNVYPLIEGIVPPTLHFYIKEGYLDIYGFWRVEGEEHAAHIRVAIDKVHVVGTSIIVEPHGALENFDASVVIKLDASEKDLEQLKKIINEEKFWTKEEHGEVISTYLEKHLREKRKKKE | soluble
